Measured values reported in publication PMC7926622, “Structure–Function Relationship Study of a Secretory Amoebic Phosphatase: A Computational-Experimental Approach” (International Journal of Molecular Sciences, 2021).

System: O=P(O)(O)OP(=O)(O)O
Assay: purified protein
Details: pH 9.0 (100 mM Tris-HCl; optimum pH), 5 mM MgSO4, 37 °C, 0.1 µM enzyme
Source text: malachite green phosphate release, Michaelis-Menten fit on rEhHAPp49

For “rEhHAPp49 (Entamoeba histolytica HM-1:IMSS)”, the Km was 12 ± 2 µM, the kcat was 0.177 ± 0.00333 s⁻¹ and the kcat/Km was 14700 M⁻¹ s⁻¹.
